Measurements taken from the Immune Epitope Database (IEDB).

Key:
[1] = molecular target: HLA-B*53:01; test: IEDB peptide-MHC binding, purified MHC/competitive/radioactivity; filed as Kd, often an IC50 or EC50 that approximates it; ≥ and ≤ were set here for values at or beyond the usual limits of such assays
[2] = molecular target: HLA-A*02:01; test: IEDB peptide-MHC binding, purified MHC/direct/fluorescence; filed as Kd, often an IC50 or EC50 that approximates it; ≥ and ≤ were set here for values at or beyond the usual limits of such assays
[3] = molecular target: HLA-B*35:01; test: IEDB peptide-MHC binding, purified MHC/competitive/radioactivity; filed as Kd, often an IC50 or EC50 that approximates it; ≥ and ≤ were set here for values at or beyond the usual limits of such assays
[4] = molecular target: HLA-B*51:01; test: as above
[5] = molecular target: HLA-B*07:02; test: IEDB peptide-MHC binding, purified MHC/direct/fluorescence; filed as Kd, often an IC50 or EC50 that approximates it; ≥ and ≤ were set here for values at or beyond the usual limits of such assays; settings: source organism: Mycobacterium tuberculosis str. Haarlem
[6] = molecular target: HLA-A*69:01; test: as above
[7] = molecular target: HLA-B*15:01; test: as above
[8] = molecular target: HLA-A*02:01; test: IEDB peptide-MHC binding, purified MHC/competitive/fluorescence; ≥ and ≤ were set here for values at or beyond the usual limits of such assays
[9] = molecular target: HLA-B*07:02; test: IEDB peptide-MHC binding, purified MHC/competitive/radioactivity; filed as Kd, often an IC50 or EC50 that approximates it; ≥ and ≤ were set here for values at or beyond the usual limits of such assays
[10] = molecular target: HLA-A*03:01; test: IEDB peptide-MHC binding, purified MHC/direct/fluorescence; filed as Kd, often an IC50 or EC50 that approximates it; ≥ and ≤ were set here for values at or beyond the usual limits of such assays
[11] = molecular target: HLA-A*11:01; test: as above
[12] = molecular target: HLA-A*01:01; test: as above
[13] = molecular target: HLA-A*31:01; test: IEDB peptide-MHC binding, purified MHC/competitive/radioactivity; filed as Kd, often an IC50 or EC50 that approximates it; ≥ and ≤ were set here for values at or beyond the usual limits of such assays; settings: source organism: SARS coronavirus Tor2
[14] = molecular target: HLA-A*33:01; test: as above; settings: source organism: SARS coronavirus Tor2
[15] = molecular target: HLA-A*68:01; test: as above; settings: source organism: SARS coronavirus Tor2
[16] = molecular target: HLA-B*40:01; test: IEDB peptide-MHC binding, purified MHC/direct/fluorescence; filed as Kd, often an IC50 or EC50 that approximates it; ≥ and ≤ were set here for values at or beyond the usual limits of such assays; settings: source organism: Corynebacterium diphtheriae
[17] = molecular target: HLA-A*02:02; test: IEDB peptide-MHC binding, purified MHC/competitive/radioactivity; filed as Kd, often an IC50 or EC50 that approximates it; ≥ and ≤ were set here for values at or beyond the usual limits of such assays; settings: source organism: Vaccinia virus WR
[18] = molecular target: HLA-A*02:03; test: as above; settings: source organism: Vaccinia virus WR
[19] = molecular target: HLA-A*02:06; test: as above; settings: source organism: Vaccinia virus WR
[20] = source organism: Dengue virus 4 Dominica/814669/1981
[21] = source organism: Dengue virus 1 Brazil/97-11/1997
[22] = source organism: Dengue virus 4 Philippines/H241/1956
[23] = source organism: Zaire ebolavirus
[24] = source organism: Dengue virus 3 Martinique/1243/1999
[25] = source organism: Dengue virus 2 Jamaica/1409/1983
[26] = source organism: Vaccinia virus
[27] = source organism: Francisella tularensis subsp. holarctica LVS
[28] = source organism: Mammarenavirus juninense
[29] = source organism: Bacillus cereus
[30] = source organism: Yersinia pestis
[31] = source organism: West Nile virus
[32] = source organism: Vaccinia virus Copenhagen
[33] = source organism: Rickettsia sibirica
[34] = source organism: Brucella abortus 2308

Question: Which Kd [1, 20] does the source give for LATGPILTLW here?
Answer: 15.1 nM

Question: With GLRAIKSVL as the sequence, how does the Kd ([2]; source organism: Homo sapiens) read?
Answer: 5660 nM

Question: What does the source list for LPVLLGSFGC?
Answer: Kd [3, 21]: 5940 nM; Kd [4, 21]: ≥ 43500 nM; Kd [1, 21]: 117 nM

Question: With GPRQWRWPL as the sequence, how does the Kd [5] read?
Answer: 14.2 nM

Question: DLNKVIQFL was tested. Which Kd ([6]; source organism: Haemophilus influenzae) did it give?
Answer: 352 nM

Question: How did the Kd ([7]; source organism: Mycobacterium tuberculosis F11) turn out when ALSTGAGAY was run?
Answer: 436 nM

Question: Which Kd [3, 22] does the source give for FPQSNSPIED here?
Answer: 630 nM

Question: What about the Kd [4, 22] of the same sequence?
Answer: ≥ 37500 nM

Question: And the Kd [1, 22]?
Answer: 1830 nM

Question: How did the IC50 [8, 23] turn out when QLNETIYTS was run?
Answer: 2800 nM

Question: How did the Kd [9, 20] turn out when SPGYVLGVFL was run?
Answer: 238 nM

Question: For CPTQGEAVL, which Kd [9, 24] is on record?
Answer: 53.7 nM

Question: Which Kd [1, 25] does the source give for VSIPITAAAW here?
Answer: 402 nM

Question: With WPLNEGVMAV as the sequence, how does the Kd [4, 24] read?
Answer: 1670 nM

Question: Which IC50 ([8]; source organism: Sudan ebolavirus) does the source give for QLANETTQA here?
Answer: 25900 nM

Question: With CIDILRSLE as the sequence, how does the IC50 [8, 26] read?
Answer: 51000 nM

Question: For RAADEPPLV, which IC50 [8, 26] is on record?
Answer: 2830 nM

Question: How did the IC50 [8, 23] turn out when LGVATAHGS was run?
Answer: ≥ 277000 nM

Question: NPWMEDKTH was tested. Which Kd [3, 21] did it give?
Answer: 2300 nM

Question: Which results are given for KLYGLSQGY?
Answer: Kd [10, 27]: 4.7 nM; Kd [11, 27]: 210 nM

Question: How did the Kd [3, 20] turn out when LPLPWTAGAD was run?
Answer: 8060 nM

Question: What about the Kd [4, 20] of the same sequence?
Answer: ≥ 69600 nM

Question: What does the source list for FPYSIPATL?
Answer: Kd [3, 24]: 1.99 nM; Kd [4, 24]: 89 nM; Kd [1, 24]: 2.15 nM

Question: TPRAKRGTA was tested. Which Kd [9, 21] did it give?
Answer: 227 nM

Question: What does the source list for SSSLTSLLK?
Answer: Kd ([12]; source organism: SARS-CoV1): 1110 nM; Kd [13]: 4760 nM; Kd [14]: ≥ 41500 nM; Kd [15]: 9330 nM

Question: How did the Kd [3, 22] turn out when LPTYLSSRAK was run?
Answer: 15100 nM

Question: What about the Kd [4, 22] of the same sequence?
Answer: ≥ 49800 nM

Question: FLPKAAYAL was tested. Which Kd [2, 28] did it give?
Answer: 2.8 nM

Question: How did the Kd [2, 29] turn out when GIYCTVPFI was run?
Answer: 111 nM

Question: What about the Kd [6, 29] of the same sequence?
Answer: 388 nM

Question: Which Kd [4, 24] does the source give for LPIRYQTTA here?
Answer: 15900 nM

Question: How did the Kd [4, 24] turn out when TPVTTWENV was run?
Answer: 12900 nM

Question: GMNAPDDLV was tested. Which IC50 [8, 23] did it give?
Answer: 6300 nM

Question: For VSWKPWSSK, which Kd ([10]; source organism: Cryptosporidium parvum) is on record?
Answer: 50.7 nM

Question: For WQNLAWAGV, which Kd [2, 30] is on record?
Answer: 53.6 nM

Question: What about the Kd [6, 30] of the same sequence?
Answer: 7000 nM

Question: Which Kd [16] does the source give for LEEEGVTPL here?
Answer: 43.4 nM

Question: Which Kd ([2]; source organism: Burkholderia pseudomallei) does the source give for TMGPHPAGV here?
Answer: 0.7 nM

Question: GTTFAEGVV was tested. Which IC50 [8, 23] did it give?
Answer: 31100 nM

Question: With VPMAGPLVA as the sequence, how does the Kd [9, 24] read?
Answer: 56 nM

Question: VAFLILPQA was tested. Which IC50 [8, 23] did it give?
Answer: 520 nM

Question: Which results are given for YQTDSGCWY?
Answer: Kd [12, 31]: 6060 nM; Kd [7, 31]: 1340 nM

Question: For LEKVQRQIQ, which IC50 [8, 23] is on record?
Answer: ≥ 446000 nM

Question: CSSISIKLT was tested. Which IC50 [8, 32] did it give?
Answer: ≥ 729000 nM

Question: For IPERSWNSGY, which Kd [3, 21] is on record?
Answer: 155 nM

Question: How did the Kd ([9]; source organism: Dengue virus 1 Singapore/S275/1990) turn out when IPKIYGGPIS was run?
Answer: 508 nM

Question: TPMLRHTIEN was tested. Which Kd [9, 24] did it give?
Answer: 1020 nM

Question: DSLSSQMTS was tested. Which IC50 [8, 32] did it give?
Answer: ≥ 240000 nM

Question: For VAEIQPQWI, which Kd [4, 22] is on record?
Answer: ≥ 20900 nM

Question: With KLYFWIPWS as the sequence, how does the Kd [2, 33] read?
Answer: 197 nM

Question: And the Kd [6, 33]?
Answer: ≥ 20000 nM

Question: How did the Kd [17] turn out when KTANNYETI was run?
Answer: 37.2 nM

Question: And the Kd [18]?
Answer: 38.5 nM

Question: And the Kd [19]?
Answer: 329 nM

Question: Which Kd [10, 28] does the source give for TLHFLTRGK here?
Answer: 344 nM

Question: How did the Kd ([2]; source organism: Influenza A virus (A/Saudi Arabia/7971/2000(H1N1))) turn out when LLFEVEQEI was run?
Answer: 15.7 nM

Question: Which Kd [17] does the source give for FTSYKRFVT here?
Answer: 2330 nM

Question: What about the Kd [18] of the same sequence?
Answer: 3380 nM

Question: What about the Kd [19] of the same sequence?
Answer: 12400 nM

Question: With SVTRLENLMW as the sequence, how does the Kd [1, 25] read?
Answer: 437 nM

Question: With LIGLSSRATW as the sequence, how does the Kd [1, 22] read?
Answer: 378 nM

Question: CSDDGFWSK was tested. Which Kd ([12]; source organism: Homo sapiens) did it give?
Answer: 423 nM

Question: And the Kd ([10]; source organism: Homo sapiens)?
Answer: 11000 nM

Question: And the Kd ([11]; source organism: Homo sapiens)?
Answer: 138 nM

Question: Which Kd [17] does the source give for RIITILQDI here?
Answer: 583 nM

Question: What about the Kd [18] of the same sequence?
Answer: 5.57 nM

Question: And the Kd [19]?
Answer: 2.01 nM

Question: What does the source list for GLSSGFYFEI?
Answer: Kd [17]: 48.3 nM; Kd [18]: 782 nM; Kd [19]: 1730 nM

Question: NTDHPLSINV was tested. Which Kd [17] did it give?
Answer: 388 nM

Question: What about the Kd [18] of the same sequence?
Answer: 583 nM

Question: And the Kd [19]?
Answer: 1.64 nM

Question: Which results are given for DLSLGNQEL?
Answer: Kd [2, 34]: ≥ 10000 nM; Kd [6, 34]: ≥ 20000 nM

Question: Which Kd [17] does the source give for TILDDNLYKV here?
Answer: 1080 nM

Question: And the Kd [18]?
Answer: 1630 nM

Question: And the Kd [19]?
Answer: 48.8 nM

Question: ALMTLDDLAI was tested. Which Kd [17] did it give?
Answer: 14.2 nM

Question: And the Kd [18]?
Answer: 29.3 nM

Question: And the Kd [19]?
Answer: 24.1 nM

Question: For AAKTPVIVV, which Kd [17] is on record?
Answer: 1360 nM

Question: And the Kd [18]?
Answer: 1630 nM

Question: And the Kd [19]?
Answer: ≥ 25400 nM

Question: With SPPETQKAEL as the sequence, how does the Kd [9, 24] read?
Answer: 28.4 nM
